Reference: PMC4519330, “An Internally Translated MAVS Variant Exposes Its Amino-terminal TRAF-Binding Motifs to Deregulate Interferon Induction” (PLoS Pathogens, 2015)

Molecular target: the molecule itself
Assay: co-IP; 293T cells co-transfected; lysates in NP40 buffer (50 mM Tris-HCl pH 7.4, 150 mM NaCl, 5 mM EDTA, 1% NP40) precipitated with anti-Flag agarose at 4°C for 4-6 hours; immunoblot

B1: Flag-tagged MAVS50 (natural protein, human, UniProt Q7Z434 142-540, looked up)
chain: MPVQETQAPESPGENSEQALQTLSPRAIPRNPDGGPLESSSDLAALSPLTSSGHQEQDTELGSTHTAGATSSLTPSRGPVSPSVSFQPLARSTPRASRLPGPTGSVVSTGTSFSSSSPGLASAGAAEGKQGAESDQAEPIICSSGAEAPANSLPSKVPTTLMPVNTVALKVPANPASVSTVPSKLPTSSKPPGAVPSNALTNPAPSKLPINSTRAGMVPSKVPTSMVLTKVSASTVPTDGSSRNEETPAAPTPAGATGGSSAWLDSSSENRGLGSELSKPGVLASQVDSPFSGCFEDLAISASTSLGMGPCHGPEENEYKSEGTFGIHVAENPSIQLLEGNPGPPADPDGGPRPQADRKFQEREVPCHRPSPGALWLQVAVTGVLVVTLLVVLYRRRLH
notes: MAVS (mitochondrion antiviral signaling adaptor), variant of ~50 kDa from internal translation initiation at codon 142; also called MAVS50-Flag; Flag-MAVS50
binding result: binds
